Experiments:
[1] = test system: CHS-induced ear inflammation in K14-VEGF-A mice; experiment: Contact hypersensitivity-induced ear inflammation in K14-VEGF-A mice; type: in vivo, mouse
Source text: A delayed-type hypersensitivity reaction was induced in the ear skin of female FVB mice that overexpress VEGF-A in the epidermis under control of the human keratin 14 promoter as previously described (Detmar et al., 1998; Kunstfeld et al., 2004; Xia et al., 2003). Heterozygous VEGF-A transgenic mice with no pre-existing inflammatory lesions were sensitized by topical application of a 2% oxazolone (4-ethoxymethylene-2-phenyl-2-oxazoline-5-one; Sigma) solution in acetone/olive oil (4:1 vol/vol) to the shaved abdomen (50 μl) and each paw (5 μl). Five days after sensitization, the ears were challenged by topical application of 20 μl of a 1% oxazolone solution. Therapy was started on day 7 and repeated at day 9, 11 and 13. […] Ear thickness was measured every other day and at day 15, mice were sacrificed and ear draining lymph nodes were weighted. The timeline for this experiment is illustrated in FIG. 13A. Each treatment event is indicated by an arrow.

CT26 colon carcinoma [2] = experiment: Ex vivo immunofluorescence of CT26 tumours; type: in vivo, mouse
Source text: (§1) In order to study a second immunocompetent mouse model of cancer, the inventors focused on Balb/c mice (obtained from Elevage Janvier [France]) bearing subcutaneous CT26 tumours of colorectal origin.

[3] = Solubility of the product (limit of dose escalation); type: physicochemical; conditions: doses above 90 μg could not be tested
[4] = test system: collagen induced arthritis in DBA/1J mice; experiment: Aggressive collagen induced arthritis model, targeted vs untargeted IL4 (Example 3a); type: in vivo, mouse; conditions: 100 μg/injection i.v., days 1, 3 and 7
Description: Injections were administered on day 1, 3 and 7.

[5] = molecular target: T1, EDA domain of fibronectin (Homo sapiens, UniProt P02751); experiment: Surface plasmon analysis (BIAcore) on EDA antigen-coated sensor chip; type: binding
T1 construct: surface plasmon analysis (BIAcore) on an EDA antigen-coated sensor chip
T1 sequence (P02751 1727-1814 limits assumed): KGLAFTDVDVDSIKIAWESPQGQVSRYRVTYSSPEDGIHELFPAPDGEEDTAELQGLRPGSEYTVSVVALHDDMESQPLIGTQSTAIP
Source text: The fusion protein was expressed and purified to homogeneity as described for F8-IL4 above.

[6] = test system: experimental autoimmune encephalomyelitis (EAE) in C57/BL6 mice; experiment: Experimental autoimmune encephalomyelitis (EAE) model of multiple sclerosis; type: in vivo, mouse
Source text: 36 C57/BL6 mice were immunized with MOG35-55/CFA and pertussis toxin by injection as reported in McCarthy et al. (2012) to induce experimental autoimmune encephalomyelitis (EAE), a model for multiple sclerosis (MS). Mice were scored daily and using a grading system from 0 to 5 reflecting progressive paralysis (McCarthy et al., 2012). Any mouse with newly developed clinical signs of EAE was assigned to one of three groups in a balanced manner. Treatment started on the day of assignment to a group (first day after EAE onset). Mice in the F8-murine IL4 treatment group (SEQ ID NO: 21) (indicated by circles in FIG. 18) received a total of three i.v. injection of 200 μg each (200 μl of a 1 mg/ml solution), every third day (see black arrows in FIG. 18). Mice in the Fingolimod (FTY720) treatment group (indicated by squares in FIG. 18) received daily oral gavage at a dose of 1 mg/kg (see open arrows in FIG. 18).

[7] = test system: endometriotic lesions in Balb/c mice; experiment: Endometriosis model in Balb/c mice; type: in vivo, mouse
Description: Endometriosis was induced in sixty eight-week old female Balb/c mice according to the protocol described by Somigliana et al. (1999).
One day after the implantation of endometrial tissue, pairs of mice (who received tissue from the same donor) were treated either with intravenous (i.v.) injections of F8-murine IL4 (200 μg/mouse; SEQ ID NO: 21) or PBS (group 1); or with i.v. injections of KSF-murine IL4 (200 μg/mouse; SEQ ID NO: 44) or PBS (group 2). The same treatment was repeated at days 4 and 7. Mice were sacrificed at day 15.

F9 teratocarcinoma = experiment: Quantitative biodistribution in F9 tumour-bearing mice; type: in vivo, mouse
Description: The in vivo targeting performance was assessed by quantitative biodistribution where 15 μg of radioiodinated fusion protein was injected i.v. into the lateral tail vein of immunocompetent 11-12 week old female Sv129Ev mice (obtained from Charles River [Germany]), bearing sub-cutaneously grafted F9 tumours (for labelling protocol, see (Pasche et al. 2011)). Mice were sacrificed 24 hours after injection, organs were excised, weighed and radioactivity was measured using a Packard Cobra γ counter.

CT26 colon carcinoma [8] = experiment: Therapy studies in CT26 tumour-bearing mice; conditions: 90 μg i.v. every 48 h
Source text: Data represent mean tumour volumes (±SEM), n=5 mice per group. […] Data represent mean tumour volumes (±SEM), n=5 mice per group.
In the description of the below experiments, data are expressed as the mean (±SEM). Differences in tumor volume, % ID/g and Tumor-to-blood ratio between therapeutic groups were compared using Graphpad Prism's repeated measures (mixed model) ANOVA analysis.
Mice were sacrificed when tumour volumes reached a maximum of 2000 mm^3.
as §1

[9] = test system: cytokine levels in ear tissue; experiment: Cytokine levels in ear tissue extracts of psoriasis models (multiplex bead flow cytometry); type: in vivo, mouse
Description: Ear tissue was obtained at the end of therapy from each mouse and processed to a tissue extract as previously described (Schwager et al., 2013). The end of therapy was day 13 for the IMQ model described in Example 14 and day 15 for the CHS model described in Example 15. Briefly, ears were cut into small pieces and suspended in a 50 mM Tris, 150 mM NaCl buffer containing complete protease inhibitor cocktail (Roche Diagnostics, Rotkreuz, Switzerland). For homogenization, a 5 mm stainless steel bead (Qiagen, Hombrechtikon, Switzerland) was added, and the tissue was homogenized in a QIAGEN Tissue Lyzer (4× 1 minute, 4° C., 30 Hz). After centrifugation (5 min, 4° C., 16,000 g), supernatant was harvested […]. Protein concentrations were determined by BCA assay (Thermo Fisher Scientific, IL) and total protein concentration of all samples was normalized. To quantify cytokine levels of treated and control mice, a multiplex bead-based flow cytometry analysis was performed using the mouse Th1/Th2/Th17/Th22 13plex FlowCytomix Multiplex kit (eBioscience). FACS analysis was performed on a BD FACS Canto (BD Bioscience, Allschwil, Switzerland) and data evaluated with FlowCytomix Pro 3.0 software (eBioscience). Using standard curves generated by the FlowCytomix Pro 3.0 software with control samples, a level of quantification was assigned for each cytokine.

[10] = 200 μg/mouse i.v. days 1, 4, 7, day 15, vs PBS
[11] = 15 μg radioiodinated protein i.v., 24 hours
[12] = IMQ and CHS models, end of therapy

B1: F8-IL4: antibody F8 (anti-EDA of fibronectin) in diabody format fused at the C-terminus to murine interleukin 4 via 15 amino acid linker (protein)
chain: EVQLLESGGGLVQPGGSLRLSCAASGFTFSLFTMSWVRQAPGKGLEWVSAISGSGGSTYYADSVKGRFTISRDNSKNTLYLQMNSLRAEDTAVYYCAKSTHLYLFDYWGQGTLVTVSSGGSGGEIVLTQSPGTLSLSPGERATLSCRASQSVSMPFLAWYQQKPGQAPRLLIYGASSRATGIPDRFSGSGSGTDFTLTISRLEPEDFAVYYCQQMRGRPPTFGQGTKVEIKSSSSGSSSSGSSSSGHIHGCDKNHLREIIGILNEVTGEGTPCTEMDVPNVLTATKNTTESELVCRASKVLRIFYLKHGKTPCLKKNSSVLMELQRLFRAFRCLDSSISCTMNESKSTSLKDFLESLKSIMQMDYS
modifications: Synthetic sequence Amino acid sequence of F8 -(murine) IL4 of PCT/EP2014/053998
notes: antibody F8 (anti-EDA of fibronectin) in diabody format fused at the C-terminus to murine interleukin 4 via 15 amino acid linker
- ear thickness ([1]; 100 μg i.v. days 7, 9, 11, 13, vs PBS or KSF-IL4): significantly reduced ear thickness
- ear draining lymph nodes (weight) ([1]; day 15): smaller
- decrease in ear thickness from treatment initiation (day 7) ([1]; mouse, in vivo): significantly more than treatment with either FSF-IL4, F8-SIP or PBS
- accumulation at the tumour site (CT26 colon carcinoma [2]): preferentially accumulated at the tumour site
- solubility [3]: insufficient solubility
- activity in reducing arthritic score and paw swelling compared to KSF-IL4 [4]: statistically significant superior activity
- affinity for the cognate antigen [5]: retained a high-affinity for the cognate antigen
- EAE severity compared with fingolimod ([6]; fingolimod 1 mg/kg daily oral gavage): not significantly different
- EAE severity compared with PBS ([6]; three i.v. injections of 200 μg, every third day): significantly reduced EAE severity
- mice completely cured of the disease ([7]; 200 μg/mouse i.v.): three mice out of ten
- number of the endometriotic lesions [7, 10]: statistically significant reduction
- volume of the endometriotic lesions [7, 10]: statistically significant reduction
- accumulation at the tumour site (% ID/g) (F9 teratocarcinoma; [11]): preferential accumulation
- tumour-to-blood ratio (F9 teratocarcinoma; [11]): 12
- clearance from the blood stream (F9 teratocarcinoma; 24 hours after i.v. injection): fast clearance from the blood stream
- therapeutic performance (CT26 colon carcinoma [8]): superior therapeutic performance compared to KSF-IL4
- IL2 level in ear tissue [9, 12]: do not appear to show a change in concentration
- IL10 level in ear tissue [9, 12]: up-regulated
- IL13 level in ear tissue [9, 12]: up-regulated
- IL27 level in ear tissue [9, 12]: up-regulated
- IL-1 alpha level in ear tissue ([9]; IMQ-induced psoriasis model): may be down-regulated

Source: patent publication US20160200789A1, “IL4 CONJUGATED TO ANTIBODIES AGAINST EXTRACELLULAR MATRIX COMPONENTS” (PHILOGEN S.P.A., priority 2013, published 2016)
